Measurements published in publication PMC2812517 (The Journal of Cell Biology, 2010).

Target: GST-LC3B (UniProt Q9GZQ8 1-120)
Experiment: pull-down

binding result: binds
B1: MBP-FYCO1(863–1,478) (domain or fragment)
chain: AQQREEELRALQEELSQAKCSSEEAQLEHAELQEQLHRANTDTAELGIQVCALTVEKERVEEALACAVQELQDAKEAASREREGLERQVAGLQQEKESLQEKLKAAKAAAGSLPGLQAQLAQAEQRAQSLQEAAHQELNTLKFQLSAEIMDYQSRLKNAGEECKSLRGQLEEQGRQLQAAEEAVEKLKATQADMGEKLSCTSNHLAECQAAMLRKDKEGAALREDLERTQKELEKATTKIQEYYNKLCQEVTNRERNDQKMLADLDDLNRTKKYLEERLIELLRDKDALWQKSDALEFQQKLSAEERWLGDTEANHCLDCKREFSWMVRRHHCRICGRIFCYYCCNNYVLSKHGGKKERCCRACFQKLSEGPGSPDSSGSGTSQGEPSPALSPASPGPQATGGQGANTDYRPPDDAVFDIITDEELCQIQESGSSLPETPTETDSLDPNAAEQDTTSTSLTPEDTEDMPVGQDSEICLLKSGELMIKVPLTVDEIASFGEGSRELFVRSSTYSLIPITVAEAGLTISWVFSSDPKSISFSVVFQEAEDTPLDQCKVLIPTTRCNSHKENIQGQLKVRTPGIYMLIFDNTFSRFVSKKVFYHLTVDRPVIYDGSDFL
